Experimental data: US20090136484A1

Columns and labels:
[1] = target: T1, Biotin-… (epitope sequence from candidal Hsp90) (Candida); assay: ELISA, biotinylated peptide on streptavidin plate, anti-His-HRP detection; Site 1; sample in 50 mM Tris, pH 9.0
[2] = target: T1, Biotin-… (epitope sequence from …); assay: ELISA, biotinylated peptide on streptavidin plate, anti-His-HRP detection; Site 2; sample in 50 mM Tris, pH 9.0
[3] = target: T1, Biotin-… (epitope sequence from …); assay: ELISA, biotinylated peptide on streptavidin plate, anti-His-HRP detection; Site 1; sample in 50 mM Tris, 3 mM DTT, pH 9.0
[4] = target: T1, Biotin-… (epitope sequence from …); assay: ELISA, biotinylated peptide on streptavidin plate, anti-His-HRP detection; Site 2; sample in 50 mM Tris, 3 mM DTT, pH 9.0
[5] = target: T1, Biotin-… (epitope sequence from …); assay: ELISA, biotinylated peptide on streptavidin plate, anti-His-HRP detection; Site 1; sample in 0.5 M urea, 0.2 M L-arginine pH 9.5
[6] = target: T1, Biotin-… (epitope sequence from …); assay: ELISA, biotinylated peptide on streptavidin plate, anti-His-HRP detection; Site 2; sample in 0.5 M urea, 0.2 M L-arginine pH 9.5
[7] = target: T1, Biotin-… (epitope sequence from …); assay: ELISA, biotinylated peptide on streptavidin plate, anti-His-HRP detection; Site 1; sample in 50 mM Tris, 1 M sucrose, ~0.2% Tween20, 3 mM DTT, pH 3.0
[8] = target: T1, Biotin-… (epitope sequence from …); assay: ELISA, biotinylated peptide on streptavidin plate, anti-His-HRP detection; Site 2; sample in 50 mM Tris, 1 M sucrose, ~0.2% Tween20, 3 mM DTT, pH 3.0

ELISA activity [%] compared with the reference standard [1]: 71%
ELISA activity [%] compared with the reference standard [2]: 95%
ELISA activity [%] compared with the reference standard [3]: 85%
ELISA activity [%] compared with the reference standard [4]: 131%
ELISA activity [%] compared with the reference standard [5]: 90%
ELISA activity [%] compared with the reference standard [6]: 78%
ELISA activity [%] compared with the reference standard [7]: 135%
ELISA activity [%] compared with the reference standard [8]: 130%
B1: MYC123 ("wild type" Mycograb) scFv peptide (scFv)
scFv: MAEVQLVESGAEVKKPGESLRISCKGSGCIISSYWISWVRQMPGKGLEWMGKIDPGDSYINYSPSFQGHVTISADKSINTAYLQWNSLKASDTAMYYCARGGRDFGDSFDYWGQGTLVTVSSGGGGSGGGGSGGGGSDVVMTQSPSFLSAFVGDRITITCRASSGISRYLAWYQQAPGKAPKLLIYAASTLQTGVPSRFSGSGSGTEFTLTINSLQPEDFATYYCQHLNSYPLTFGGGTKVDIKRAAALEHHHHHH
